Measured values reported in patent US20220193133A1 (CENTURY THERAPEUTICS, published 2022).
Substitutions are numbered along the chain they refer to. One block for each binder: values may come before it.

Experiments:
[1] = target: T1, D04 protein (humanized D04 VHH as ELISA antigen); experiment: periplasmic extract ELISA, absorbance 450 nm, single point
T1 construct: Panning used biotinylated D04-Fc; the ELISA legend says only 'D04 protein'

[2] = target: T2, humanized D04 VHH CAR (hyLYSO_CW_P01_D04) on Nurkat cells or primary T cells; experiment: flow cytometry, VHH-Fc on CAR Nurkat cells, 3-fold dilutions 50 to 0.02 nM, anti-Fc APC, %Fc positive cells
T2 construct: also called D04 (p1648); P1650
Source text: (§1) […] Fc-fusion protein was detected via anti-Fc APC, and the percentage of cells that were positive for this detection method are shown. […] Controls include (i) no VHH-Fc added and (ii) the anti-VHH cocktail detection reagent (far right). The samples shown in the graphs for each protein appear in the order as specified in the legend.

[3] = target: T3, B11 protein (humanized B11 VHH as ELISA antigen); experiment: periplasmic extract ELISA, absorbance 450 nm, single point
T3 construct: Panning used B11-Fc; the ELISA legend says only 'B11 protein'

[4] = target: T4, humanized B11 VHH CAR (hyLYSO_CW_P01_B11) on Nurkat cells; experiment: flow cytometry, VHH-Fc on CAR Nurkat cells, 3-fold dilutions 50 to 0.02 nM, anti-Fc APC, %Fc positive cells
T4 construct: also called B11 (p1649); P1649
Source text: as §1

[5] = target: T5, B11-his tagged VHH (humanized B11); experiment: Octet (BLI), anti-idiotype VHH-Fc vs his-tagged VHH; table title prints D04-his, its footnote prints B11-his
T5 construct: also called B11-his protein; B11 his-tagged protein

[6] = target: T6, chicken lysozyme (Hen Egg Lysozyme) (chicken, UniProt P00698 19-147, biotinylated); experiment: flow cytometry, CAR Jurkat cells + 10 ug/mL biotinylated lysozyme, streptavidin-APC, % positive cells
T6 construct: also called HEL; chicken egg white lysozyme
T6 sequence (P00698 19-147): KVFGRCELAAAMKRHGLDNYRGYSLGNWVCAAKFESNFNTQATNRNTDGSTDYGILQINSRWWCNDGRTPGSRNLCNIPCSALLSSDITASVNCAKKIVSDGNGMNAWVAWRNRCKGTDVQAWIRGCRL

[7] = target: T7, human lysozyme (human, UniProt P61626 19-148, biotinylated); experiment: as above
T7 construct: also called human lysozyme protein
T7 sequence (looked up): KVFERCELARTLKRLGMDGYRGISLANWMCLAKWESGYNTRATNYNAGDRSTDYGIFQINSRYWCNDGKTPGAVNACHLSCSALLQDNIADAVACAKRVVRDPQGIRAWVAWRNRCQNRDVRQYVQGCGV

[8] = target: T8, D04-his tagged VHH (humanized D04); experiment: Octet (BLI), anti-idiotype VHH-Fc vs his-tagged VHH; table title prints B11-his, paragraph 353 ties these values to D04
T8 construct: also called LysoD04.His; D04 his-tagged protein

- binding result [1]: binds
B1: huD04_CNTY2_F04 anti-idiotype VHH (periplasmic extract) (VHH)
VHH: EVQLLESGGGLVQPGGSLRLSCAASGRTFSSYGMGWYRQAPGKERELVSAISNRGSTYYADSVKGRFTISRDNSKNTLYLQMNSLRAEDTAVYYCAASPARVGVSGHSSSRRSYYGYSYDYWGQGTQVTVSS
notes: Screened as periplasmic extract; also called VHH of AMD70

- binding result [2]: binds
B2: AMD70 (Fc fusion)
VHH-Fc: B1 VHH
notes: also called huD04_CNTY2_F04 anti-idiotype VHH IgG1-Fc fusion

- binding result [1]: binds
B3: huD04_CNTY2_H12 anti-idiotype VHH (periplasmic extract) (VHH)
VHH: EVQLLESGGGLVQPGGSLRLSCAASGSIFSSDVMGWYRQAPGKERELVSAISSGGSTRYADSVKGRFTISRDNSKNTLYLQMNSLRAEDTAVYYCAATMGKSKTNRRNYGTWRYGAYAYWGQGTQVTVSS
notes: Screened as periplasmic extract; also called VHH of ABD72 (AMD72)

- binding result [2]: binds
B4: AMD72 (huD04_CNTY2_H12 anti-idiotype VHH IgG1-Fc fusion) (Fc fusion)
chain: B3 VHH
notes: also called ABD72; not shown: IgG1 Fc

- binding result [3]: no binding
B5: huD04_CNTY2_D04 anti-idiotype VHH (periplasmic extract) (VHH)
VHH: EVQLLESGGGLVQPGGSLRLSCAASGLTFSGVCMGWFRQAPGKEREGVSAIYSSGSTYYADSVKGRFTISRDNSKNTLYLQMNSLRAEDTAVYYCAADRIPDLGEPCIGTTNLARTYNYWGQGTQVTVSS
notes: Screened as periplasmic extract; also called VHH of AMD81

- binding result [4]: no binding (tested: 50 nM)
B6: AMD81 (Fc fusion)
VHH-Fc: B5 VHH
notes: also called huD04_CNTY2_D04 anti-idiotype VHH IgG1-Fc fusion

- binding result [4]: no binding (tested: 50 nM)
B7: AMD67 (Fc fusion)
VHH-Fc: EVQLLESGGGLVQPGGSLRLSCAASGRTFSSGAMGWYRQAPGKERELVSAISNRGSTVYADSVKGRFTISRDNSKNTLYLQMNSLRAEDTAVYYCAADRNPSSAGAGVAAYRLIARFNYWGQGTQVTVSS
notes: also called huD04_CNTY2_F09 anti-idiotype VHH IgG1-Fc fusion

- binding result [2]: no binding (tested: 50 nM)
B8: AMD73 (Fc fusion)
VHH-Fc: EVQLLESGGGLVQPGGSLRLSCAASGFTFSSYSIGWYRQAPGKERELVSVISSGGSTYYADSVKGRFTISRDNSKNTLYLQMNSLRAEDTAVYYCAASDWSYSWITYTGTWRLYEYWGQGTQVTVSS
notes: also called huB11_CNTY3+4_A01 anti-idiotype VHH IgG1-Fc fusion

- binding result [2]: no binding (tested: 50 nM)
- Kd [5]: 515 nM
- Response [5]: 0.0566
- koff [5]: 0.14 s⁻¹
- kon [5]: 273000 M⁻¹ s⁻¹
B9: AMD71 (huB11_CNTY3+4_A02 anti-idiotype VHH IgG1-Fc fusion) (Fc fusion)
chain: EVQLLESGGGLVQPGGSLRLSCAASGRTYTGSAMGWYRQAPGKERELVSAISTGGETYYADSVKGRFTISRDNSKNTLYLQMNSLRAEDTAVYYCAAGYVGLPYTYRPATSRRGYTYWGQGTQVTVSS
notes: not shown: IgG1 Fc

- binding result [4]: no binding (tested: 50 nM)
- EC50 (read off the curve) [2]: ~4 nM
B10: AMD69 (huD04_CNTY2_E03 anti-idiotype VHH IgG1-Fc fusion) (Fc fusion)
chain: EVQLLESGGGLVQPGGSLRLSCAASGLTYTGYAMGWYRQAPGKERELVSAISSRSSIYYADSVKGRFTISRDNSKNTLYLQMNSLRAEDTAVYYCAAGRPVALGSWRRTATWSAGLGAEYAYWGQGTQVTVSS
notes: not shown: IgG1 Fc

- binding result [3]: no binding
B11: huD04_CNTY2_E03 anti-idiotype VHH (periplasmic extract) (VHH)
VHH: B10 chain
notes: Screened as periplasmic extract; also called VHH of AMD69

- binding result [4]: no binding (tested: 50 nM)
- Response [5]: -0.0301
B12: AMD87 (huD04_CNTY1_D11 anti-idiotype VHH IgG1-Fc fusion) (Fc fusion)
chain: EVQLLESGGGLVQPGGSLRLSCAASGSTFSYYYMGWYRQAPGKERELVSAISSGGSIYYADSVKGRFTISRDNSKNTLYLQMNSLRAEDTAVYYCARRTYYGDEADYWGQGTQVTVSS
notes: not shown: IgG1 Fc

- binding result [6]: binds
- binding result [7]: no binding (tested: 10 ug/mL)
B13: LYSO_CW_P01_B11 VHH CAR (camelid B11) on Jurkat cells (other, not shown: small tags and cut ends)
chain: QVQLVESGGGLVQAGGSLRLSCAASGGIFSGGRMGWFRQAPGKEREFVAAVITRGGSTYYADSVKGRFTISRDNAKNTVYLQMNSLKPEDTAVYYCAASEVTYDEGRYIGTKSTYDTWGQGTQVTVSS
notes: camelid (not humanized) VHH; also called B11(p242)

- binding result [7]: no binding (tested: 10 ug/mL)
B14: p245 (other)
CAR: B13 chain with R107H

- binding result [6]: binds
- binding result [7]: no binding (tested: 10 ug/mL)
B15: LYSO_CW_P01_D04 VHH CAR (camelid D04) on Jurkat cells (other, not shown: small tags and cut ends)
chain: QVQLVESGGGLVQAGGSLRLSCAASGRIFSIYDTIGWFRQAPGKEREFVAATITTAGITTYDDSVKGRFTISRDNAKNTVYLQMNSLKPEDTAVYYCYVRVGRGDYWGQGTQVTVSS
notes: camelid (not humanized) VHH; also called D04 (p244)

- binding result [1]: binds
B16: huD04_CNTY2_F12 anti-idiotype VHH (periplasmic extract) (VHH)
VHH: EVQLLESGGGLVQPGGSLRLSCAASGFTFSSNAMGWYRQAPGKEREFVSSISSGRSTTYADSVKGRFTISRDNSKNTLYLQMNSLRAEDTAVYYCAAHGTKYKWTRARLRSARQKQLETYRYWGQGTQVTVSS
notes: Screened as periplasmic extract; also called VHH of AMD74

- binding result [2]: binds
B17: AMD74 (huD04_CNTY2_F12 anti-idiotype VHH IgG1-Fc fusion) (Fc fusion)
chain: B16 VHH
notes: not shown: IgG1 Fc

- binding result [1]: binds
- binding result [3]: no binding
B18: huD04_CNTY2_D12 anti-idiotype VHH (periplasmic extract) (VHH)
VHH: EVQLLESGGGLVQPGGSLRLSCAASGSAFSSNAMGWYRQAPGKERELVSAISSGGSTNYADSVKGRFTISRDNSKNTLYLQMNSLRAEDTAVYYCAARNPLTYTALVSNAPSGDYYLFEYRLWGQGTQVTVSS
notes: Screened as periplasmic extract; also called VHH of AMD85

- binding result [3]: no binding
B19: huD04_CNTY2_B06 anti-idiotype VHH (periplasmic extract) (VHH)
VHH: EVQLLESGGGLVQPGGSLRLSCAASGFTFNRYSMGWYRQAPGKERELVSAISSGGSGYYADSVKGRFTISRDNSKNTLYLQMNSLRAEDTAVYYCAIQDYSRIWEYIALDRRRSYYGMDYWGQGTQVTVSS
notes: Screened as periplasmic extract; also called VHH of AMD79

- binding result [4]: no binding (tested: 50 nM)
B20: AMD79 (Fc fusion)
VHH-Fc: B19 VHH
notes: also called huD04_CNTY2_B06 anti-idiotype VHH IgG1-Fc fusion

- binding result [2]: no binding (tested: 50 nM)
B21: AMD75 (Fc fusion)
VHH-Fc: EVQLLESGGGLVQPGGSLRLSCAASGFAFSDYVMGWYRQAPGKEREFVSAIRSTTSTYYADSVKGRFTISRDNSKNTLYLQMNSLRAEDTAVYYCAADVWSGYEYDYWGQGTQVTVSS
notes: also called huB11_CNTY1_E11 anti-idiotype VHH IgG1-Fc fusion

- binding result [2]: no binding (tested: 50 nM)
B22: AMD76 (Fc fusion)
VHH-Fc: B21 VHH-Fc with F27L, D31S, V33A, A50V, R52S, S53G, T55G, S56E, Y58L
notes: also called huB11_CNTY1_B11 anti-idiotype VHH IgG1-Fc fusion

- binding result [1]: binds
- binding result [3]: no binding
B23: huD04_CNTY2_D02 anti-idiotype VHH (periplasmic extract) (VHH)
VHH: EVQLLESGGGLVQPGGSLRLSCAASGFTFRSYAMGWYRQAPGKEREGVSVISSGGTPSYADSVKGRFTISRDNSKNTLYLQMNSLRAEDTAVYYCDAIMGLVEADYVSTGTYEYTAYAYWGQGTQVTVSS
notes: Screened as periplasmic extract; also called VHH of AMD80

- binding result [3]: no binding
B24: huD04_CNTY2_C03 anti-idiotype VHH (periplasmic extract) (VHH)
VHH: EVQLLESGGGLVQPGGSLRLSCAASGLTFSRYAMGWYRQAPGKERELVSAISSRRSTYYADSVKGRFTISRDNSKNTLYLQMNSLRAEDTAVYYCAADYRLTSLERARYASASITYDYWGQGTQVTVSS
notes: Screened as periplasmic extract; also called VHH of AMD78

- binding result [4]: no binding (tested: 50 nM)
- EC50 (read off the curve) [2]: ~6 nM
- Response [5]: -0.0225
- Kd [8]: 125 nM
- Response [8]: 0.172
- koff [8]: 0.0868 s⁻¹
- kon [8]: 697000 M⁻¹ s⁻¹
B25: AMD82 (huD04_CNTY1_B12 anti-idiotype VHH IgG1-Fc fusion) (Fc fusion)
chain: EVQLLESGGGLVQPGGSLRLSCAASGRTSSNYVMGWYRQAPGKEREGVSAITSGGSTYYADSVKGRFTISRDNSKNTLYLQMNSLRAEDTAVYYCAANLYSRTGAYDYWGQGTQVTVSS
notes: not shown: IgG1 Fc
